The target of the series is T1, IFIT2 (GST-Ifit2, wild type) (Mus musculus, UniProt Q64112 1-472).
T1 sequence: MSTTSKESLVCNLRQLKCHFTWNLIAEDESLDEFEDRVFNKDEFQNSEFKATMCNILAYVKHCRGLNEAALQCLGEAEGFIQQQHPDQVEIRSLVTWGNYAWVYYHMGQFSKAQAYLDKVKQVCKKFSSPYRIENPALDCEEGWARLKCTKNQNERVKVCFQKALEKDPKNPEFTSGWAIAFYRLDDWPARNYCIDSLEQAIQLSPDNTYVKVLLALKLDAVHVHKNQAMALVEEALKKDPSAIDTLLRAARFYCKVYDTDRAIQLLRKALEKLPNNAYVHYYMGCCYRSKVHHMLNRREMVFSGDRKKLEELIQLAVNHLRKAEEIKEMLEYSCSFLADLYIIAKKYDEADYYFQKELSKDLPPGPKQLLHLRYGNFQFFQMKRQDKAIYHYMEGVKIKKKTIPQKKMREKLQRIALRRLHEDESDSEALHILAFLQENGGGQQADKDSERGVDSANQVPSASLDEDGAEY
Kind of series: EMSA; 250 nM protein; at least two complexes; EMSA: 10 fmol labeled RNA in 10 uL, 250 nM protein, 50 mM Tris pH 8, 90 mM NaCl, 1 mM MgCl2, 9% glycerol, 0.05% Triton X-100, 30 min on ice; 6% native PAGE at 4 C. The conditions noted are these: protein: recombinant; tags: N-terminal GST (pGEX-6P-3); chain copies: 2; label: 5'-32P (T4 PNK); single strand.

These results are taken from PMC11253605.

For AUUAAUUUAUAAUUUAAAUUAUUUUCUACUUU (ssRNA) [32-nt AU-rich ssRNA], the binding result is on record as “binds”.
